Measurements reported in the supplement of paper PMC7877785.
± gives the uncertainty stated by the source.

Test: self-splicing fitness, log relative to wild type (ln ratio); higher = more splicing; Tetrahymena group I intron in knt gene, E. coli kanamycin selection, DiMSum; sequences stand for … in CUCUCU…GGAGGGAAAAGUUAUCAGGCAUGCACCUGGUAGCUAGUCUUUAAACCAAUAGAUUGCAUCGGUUUAAAAGGCAAGACCGUCAAAUUGCGGGAAAGGGGUCAACAGCCGUUCAGUACCAAGUCUCAGGGGAAACUUUGAGAUGGCCUUGCAAAGGGUAUGGUAAUAAGCUGACGGACAUGGUCCUAACCACGCAGCCAAGUCCUAAGUCAACAGAUCUUCUGUUGAUAUGGAUGCAGUUCACAGACUAAAUGUCGGUCGGGGAAGAUGUAUUCUUCUCAUAAGAUAUAGUCGGACCUCUCCUUAAUGGGAGCUAGCGGAUGAAGUGAUGCAACACUGGAGCCGCUGGGAACUAAUUUGUAUGCGAAAGUAUAUUGAUUAGUUUUGGAGUACUCGUGGUCG
Outline: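 The eight P1ex-region nucleotides of an intron in the knt kanamycin-resistance gene on pET-22b(+) were all randomised and the library put into E. coli BL21(DE3). Six replicate transformations were grown overnight at 37°C or 30°C on LB agar with or without 25 μg/mL kanamycin, together with 100 μg/mL carbenicillin, 50 μM IPTG and 0.2% rhamnose. Colonies were pooled and amplicon-sequenced on an Illumina HiSeq 2500. Fitness from DiMSum is the error-weighted combination of wild-type-normalised replicate fold changes, kanamycin over none.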

Sequence	self-splicing fitness (ln) (30 °C)	self-splicing fitness (ln) (37 °C)
ACUGAGCAAUAUUACGGUAA	-2.81 ± 0.27	-2.8 ± 0.34
ACUGAGCAAUAUUACGGUCC		-2.26 ± 0.33
ACUGAGCAAUAUUACGUACU	-2.16 ± 0.19	-1.42 ± 0.19
ACUGAGCAAUAUUACGUGCC	-2.31 ± 0.23	
ACUGAGCAAUAUUACGUUCC	-3.65 ± 0.35	-2.52 ± 0.24
ACUGAGCAAUAUUACGUUCG	-2.2 ± 0.15	-0.355 ± 0.12
ACUGAGCAAUAUUACGUUGG	-4.04 ± 0.2	-2.17 ± 0.18
ACUGAGCAAUAUUACGUUGU	-3.71 ± 0.26	-1.53 ± 0.14
ACUGAGCAAUAUUACGUUUA	-2.52 ± 0.2	-3.08 ± 0.24
ACUUAGCAAUAUUACGAAAA	-2.79 ± 0.26	-2.01 ± 0.27
ACUUAGCAAUAUUACGACAU	-0.756 ± 0.012	-0.251 ± 0.032
ACUUAGCAAUAUUACGACGC	-0.152 ± 0.066	-0.0939 ± 0.072
ACUUAGCAAUAUUACGAGAG	-2.21 ± 0.12	-0.741 ± 0.11
ACUUAGCAAUAUUACGAUAG	-2.71 ± 0.12	-1.7 ± 0.16
ACUUAGCAAUAUUACGCAAA	-3.03 ± 0.41	-1.24 ± 0.25
ACUUAGCAAUAUUACGCACA	-1.26 ± 0.12	-1.02 ± 0.12
ACUUAGCAAUAUUACGCAGU	-3.83 ± 0.35	-2.17 ± 0.21
ACUUAGCAAUAUUACGCGAG	-1.93 ± 0.15	-1.76 ± 0.13
ACUUAGCAAUAUUACGCGGC	-2.71 ± 0.25	-1.12 ± 0.23
ACUUAGCAAUAUUACGGAGU	-3.58 ± 0.47	-3.1 ± 0.3
ACUUAGCAAUAUUACGGCGU	-0.204 ± 0.088	0.491 ± 0.13
ACUUAGCAAUAUUACGGCUA	-2.6 ± 0.2	-0.214 ± 0.1
ACUUAGCAAUAUUACGGGUA	-1.14 ± 0.11	-1.54 ± 0.14
ACUUAGCAAUAUUACGGUAA	-2.66 ± 0.15	-1.42 ± 0.14
ACUUAGCAAUAUUACGGUGG	-3.72 ± 0.3	
ACUUAGCAAUAUUACGUAUA	-3.22 ± 0.14	-2.41 ± 0.16

Sequence	self-splicing fitness (ln) (30 °C)	self-splicing fitness (ln) (37 °C)
ACUUAGCAAUAUUACGUAUG	-3.35 ± 0.22	-2.2 ± 0.16
ACUUAGCAAUAUUACGUCGA	-2.06 ± 0.16	-1.23 ± 0.16
ACUUAGCAAUAUUACGUGAA	-2.94 ± 0.15	-1.5 ± 0.12
ACUUAGCAAUAUUACGUGCG	-1.29 ± 0.1	0.152 ± 0.15
ACUUAGCAAUAUUACGUUUU	-3.39 ± 0.12	-1.93 ± 0.1
AGAAAGCAAUAUUACGAACA	-0.534 ± 0.16	-0.288 ± 0.16
AGAAAGCAAUAUUACGAACU	-0.0259 ± 0.096	0.00874 ± 0.12
AGAAAGCAAUAUUACGAAGG	-3.59 ± 0.25	-1.74 ± 0.2
AGAAAGCAAUAUUACGACAC	-0.194 ± 0.11	-0.75 ± 0.13
AGAAAGCAAUAUUACGAGGC	-3.15 ± 0.42	-2.66 ± 0.41
AGAAAGCAAUAUUACGAGGU	-3.59 ± 0.26	-1.93 ± 0.23
AGAAAGCAAUAUUACGCAGG	-2.89 ± 0.15	-1.4 ± 0.15
AGAAAGCAAUAUUACGCAUU	-2.49 ± 0.15	-2.06 ± 0.22
AGAAAGCAAUAUUACGCCAU	-3.16 ± 0.2	-2.21 ± 0.2
AGAAAGCAAUAUUACGCCGG	-1.43 ± 0.25	-1.62 ± 0.24
AGAAAGCAAUAUUACGCCUG	-0.436 ± 0.11	-0.62 ± 0.14
AGAAAGCAAUAUUACGCGCU	-0.789 ± 0.15	-1.26 ± 0.2
AGAAAGCAAUAUUACGCGUA	-1.71 ± 0.1	-0.388 ± 0.082
AGAAAGCAAUAUUACGGAAC	-3.04 ± 0.25	-1.84 ± 0.29
AGAAAGCAAUAUUACGGCCA	-0.632 ± 0.096	-0.181 ± 0.13
AGAAAGCAAUAUUACGGCGG	-0.593 ± 0.1	-0.586 ± 0.14
AGAAAGCAAUAUUACGGCUA	-0.324 ± 0.12	0.117 ± 0.13
AGAAAGCAAUAUUACGGGGA	-3.05 ± 0.17	-2.07 ± 0.17
AGAAAGCAAUAUUACGGUCC	-0.555 ± 0.12	0.317 ± 0.16
AGAAAGCAAUAUUACGUACA	-0.839 ± 0.075	-0.379 ± 0.1
AGAAAGCAAUAUUACGUACG	-1.26 ± 0.12	0.0255 ± 0.13

Sequence	self-splicing fitness (ln) (30 °C)	self-splicing fitness (ln) (37 °C)
AGAAAGCAAUAUUACGUCAU	-1.55 ± 0.079	-0.954 ± 0.096
AGAAAGCAAUAUUACGUGAA	-2.39 ± 0.13	-1.96 ± 0.12
AGAAAGCAAUAUUACGUGAU	-2.17 ± 0.069	-1.25 ± 0.091
AGAAAGCAAUAUUACGUUCC	-2.59 ± 0.43	-1.23 ± 0.39
AGAAAGCAAUAUUACGUUUA	-1.96 ± 0.13	-1.04 ± 0.11
AGAAAGCAAUAUUACGUUUC	-3.82 ± 0.15	-2.09 ± 0.1
AGACAGCAAUAUUACGAAAA		-1.44 ± 0.29
AGACAGCAAUAUUACGAAAC	-3.76 ± 0.27	-2.66 ± 0.34
AGACAGCAAUAUUACGAAGC		-1.62 ± 0.28
AGACAGCAAUAUUACGAAGG	-3.88 ± 0.18	-2.75 ± 0.23
AGACAGCAAUAUUACGAAUC		-3.41 ± 0.47
AGACAGCAAUAUUACGAAUU	-2.74 ± 0.1	-1.27 ± 0.11
AGACAGCAAUAUUACGCAGC	-2.72 ± 0.23	-2.19 ± 0.39
AGACAGCAAUAUUACGCAUC	-2.73 ± 0.11	-2.18 ± 0.16
AGACAGCAAUAUUACGCAUU	-3.41 ± 0.12	-1.45 ± 0.087
AGACAGCAAUAUUACGCGAG	-1.22 ± 0.091	-0.818 ± 0.094
AGACAGCAAUAUUACGCGGA	-2.87 ± 0.14	-1.58 ± 0.12
AGACAGCAAUAUUACGCUUA	-0.813 ± 0.086	-0.083 ± 0.12
AGACAGCAAUAUUACGGAAG	-4.03 ± 0.3	-1.94 ± 0.18
AGACAGCAAUAUUACGGAGC	-3.94 ± 0.17	-2.93 ± 0.24
AGACAGCAAUAUUACGGCUA	-0.252 ± 0.08	-0.286 ± 0.083
AGACAGCAAUAUUACGGGCA	-1.18 ± 0.075	-0.503 ± 0.079
AGACAGCAAUAUUACGGUCC	-3.24 ± 0.27	-1.68 ± 0.28
AGACAGCAAUAUUACGGUUU	-3.25 ± 0.11	-1.32 ± 0.082
AGACAGCAAUAUUACGUACA	-0.745 ± 0.078	-0.238 ± 0.097
